Test results taken from the supplement of paper PMC9732359.
± gives the uncertainty stated by the source.

Test: protein stability index of a GFP-peptide fusion (yeast GPS) (PSI 1-4); higher = more stable; sorted into four equal gates, so the index is relative within each strain
Procedure, shortened: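 Sequencing reads from sorted gates were used to score each peptide. The library consisted of tiled 17-residue yeast protein peptides fused downstream of GFP on a Cherry-expressing plasmid, pooled and carried in yeast. Mid-log cultures in leucine-free medium were split into four equal gates by GFP/Cherry ratio, and each gate's plasmids were PCR-amplified and Illumina-sequenced. The protein stability index adds up, over all gates, the read frequency multiplied by the gate number.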

Row | Sequence | protein stability index (doa10∆) | protein stability index (pdr5∆) | protein stability index (san1∆) | protein stability index (ubr1∆)
1 | LGTVQREIESLIAEETN [SMC3] | 2.79 ± 0.18 | 2.83 ± 0.082 | 3.01 ± 0.12 | 2.91 ± 0.15
2 | LGVIHKGNLLEGKKVMA [RPN2] | 1.37 ± 0.07 | 1.33 ± 0.048 | 1.17 ± 0.11 | 1.22 ± 0.057
3 | LHKIFYKVLKNNGLPEC [YCG1] | 1.68 ± 0.045 | 1.95 ± 0.043 | 2.45 ± 0.049 | 2.13 ± 0.04
4 | LHKLELKAKNQEEEGEL [DSN1] | 3.14 ± 0.17 | 3.29 ± 0.17 | 3.37 ± 0.14 | 3.25 ± 0.1
5 | LHKNFESENFKIIALQP [RGR1] | 2.56 ± 0.076 | 2.62 ± 0.078 | 2.7 ± 0.06 | 2.58 ± 0.073
6 | LHKRQQFSESTHNDIDS [YJL039C/NUP192] | 2.9 ± 0.081 | 3.03 ± 0.091 | 2.78 ± 0.051 | 3.03 ± 0.05
7 | LHYTPIEDLWQFLYEKH [RPC82] | 2.24 ± 0.13 | 2.28 ± 0.13 | 2.14 ± 0.12 | 2.4 ± 0.16
8 | LIELLEKLDVSRSSVCV [YCG1] | 2.44 ± 0.072 | 2.32 ± 0.058 | 2.05 ± 0.08 | 1.88 ± 0.065
9 | LIELSGGQRSLIALSLI [SMC2] | 2.42 ± 0.078 | 2.29 ± 0.09 | 1.86 ± 0.1 | 2.27 ± 0.035
10 | LIETVRQMKDVNAPLPT [RPN2] | 3.12 ± 0.055 | 3.12 ± 0.051 | 2.9 ± 0.05 | 3.04 ± 0.036
11 | LIGCIDEAKDFIVSGTA [PUP3] | 2.59 ± 0.058 | 2.67 ± 0.061 | 2.66 ± 0.053 | 3.01 ± 0.044
12 | LIITRKAFKNNSSKYYI [SMC4] | 2.59 ± 0.083 | 2.98 ± 0.092 | 2.66 ± 0.068 | 2.69 ± 0.11
13 | LILRDFLNNGEVDSASD [RPN3] | 3.07 ± 0.19 | 2.89 ± 0.17 | 2.63 ± 0.23 | 3.2 ± 0.29
14 | LILSGDTTANNGKVQYF [YJL039C/NUP192] | 2.89 ± 0.091 | 2.52 ± 0.086 | 2.9 ± 0.09 | 2.95 ± 0.064
15 | LILTSHNMKAYYKKFLI [BRR2] | – | – | – | 2.54 ± 0.14
16 | LINLKISPLMKSQYNMV [SRB8] | 1.8 ± 0.085 | 1.59 ± 0.08 | 2.07 ± 0.14 | 1.53 ± 0.12
17 | LIQLQNIFKAEMDSVSK [CSN9] | 2.55 ± 0.08 | 2.54 ± 0.14 | – | 2.81 ± 0.13
18 | LIRPSSKVIIKFLQVMQ [RPS22A] | 1.86 ± 0.036 | 1.82 ± 0.03 | 2.02 ± 0.052 | 2.25 ± 0.034
19 | LISIISSVIQNYDIITA [YML103C/NUP188] | 1.81 ± 0.083 | 1.42 ± 0.1 | – | 1.3 ± 0.2
20 | LISRLCPNSTGAELRSV [RPT1] | 1.85 ± 0.043 | 1.77 ± 0.047 | 1.84 ± 0.073 | 1.73 ± 0.042
21 | LIVIDVVEGVTFVVEQL [SNU114] | 1.57 ± 0.044 | 1.92 ± 0.061 | 2.56 ± 0.082 | 2.92 ± 0.04
22 | LIYGISDEERDDEDDEH [AAR2] | 3.22 ± 0.11 | 3.05 ± 0.097 | 3.52 ± 0.066 | 3.06 ± 0.099
23 | LKFFLVDENETVLESLG [LIN1] | 3.26 ± 0.27 | 2.94 ± 0.092 | 2.9 ± 0.18 | 3.04 ± 0.15
24 | LKFLYLLDAYSHIESDS [MED1] | 2.46 ± 0.091 | 2.44 ± 0.075 | 2.8 ± 0.061 | 2.64 ± 0.057
25 | LKFMAASEVATHSKLFA [PRP8] | 2.91 ± 0.085 | 3.07 ± 0.082 | 2.78 ± 0.062 | 2.7 ± 0.073
26 | LKGLLQELKADSPFSLI [SRP72] | 1.43 ± 0.059 | 1.26 ± 0.059 | 2.42 ± 0.092 | 1.45 ± 0.046
27 | LKKIASIPNLFPTDLEI [SWI1] | 2.59 ± 0.051 | 2.69 ± 0.044 | 2.55 ± 0.053 | 2.64 ± 0.036
28 | LKKLEKFMELERKTLER [SWI3] | 2.95 ± 0.061 | 2.84 ± 0.069 | 3.18 ± 0.046 | 2.66 ± 0.058

Row | Sequence | protein stability index (doa10∆) | protein stability index (pdr5∆) | protein stability index (san1∆) | protein stability index (ubr1∆)
29 | LKKLKAMNDACYEKVLE [BRR2] | 3.18 ± 0.074 | 3.26 ± 0.061 | 3.12 ± 0.039 | 3.05 ± 0.058
30 | LKLGLVEYLDVNEENDS [RET1] | 3.11 ± 0.075 | 3.08 ± 0.086 | 3.16 ± 0.071 | 3.1 ± 0.075
31 | LKLSQAFGSSATDISGE [YJR042W/NUP85] | 2.76 ± 0.065 | 2.05 ± 0.067 | 2.56 ± 0.059 | 2.14 ± 0.048
32 | LKNLRKKLNFKLCQAFM [YJR042W/NUP85] | 2.19 ± 0.089 | 2.18 ± 0.093 | 1.61 ± 0.15 | 2.98 ± 0.15
33 | LKNVNKRAFENFKKFNE [SMC3] | 2.23 ± 0.086 | 1.95 ± 0.15 | 1.91 ± 0.094 | 1.88 ± 0.09
34 | LKQEGAANKTVVVVGTV [RPL18A] | 2.94 ± 0.27 | 3.31 ± 0.11 | 2.51 ± 0.11 | 3.46 ± 0.12
35 | LKREERQGLIHQGSGGS [SMC3] | – | 3.52 ± 0.1 | – | –
36 | LKRYCCRRMILTHVDLI [RPB10] | – | 1.54 ± 0.11 | – | 1.57 ± 0.12
37 | LKSSLADVLSILAMTYS [RPN1] | 1.7 ± 0.062 | 2.02 ± 0.12 | 1.89 ± 0.19 | 1.96 ± 0.059
38 | LKSTKHSISEAENMLEE [SMC4] | 3.06 ± 0.081 | 2.87 ± 0.12 | 3.06 ± 0.077 | 3.11 ± 0.05
39 | LKTFHFAGVASMNVTLG [RPO31] | 2.17 ± 0.081 | 2.25 ± 0.048 | 2.34 ± 0.093 | 1.98 ± 0.055
40 | LKVLSGDEGYNEDMVRR [SNF12] | 3.48 ± 0.13 | 3.22 ± 0.13 | 3.25 ± 0.095 | 3.56 ± 0.15
41 | LKVTKKHGAKKVAKRTK [RPL27A] | 3.37 ± 0.13 | 3.54 ± 0.17 | 3.39 ± 0.11 | 3.18 ± 0.13
42 | LKYSKRRSLKKQGRIKN [CSN12] | 3.01 ± 0.064 | 3.27 ± 0.069 | 3.21 ± 0.098 | 3.25 ± 0.036
43 | LLAQLNGTVNNNSALSN [RPT3] | 3.23 ± 0.25 | 2.25 ± 0.14 | 1.88 ± 0.097 | 2.34 ± 0.075
44 | LLATKQHDSSANEDEEE [CSN12] | 2.85 ± 0.12 | 3.05 ± 0.089 | 2.72 ± 0.086 | 2.87 ± 0.1
45 | LLCDKAQKNTQSYGGRP [PRE5] | 3.17 ± 0.14 | 3.27 ± 0.095 | 3.37 ± 0.092 | 3.26 ± 0.077
46 | LLDKYGKTGLSNMILGS [YML103C/NUP188] | 2.34 ± 0.078 | 2.75 ± 0.11 | 2.26 ± 0.095 | 2.12 ± 0.058
47 | LLDRILPKLKATGHRVL [SNF2] | 2.57 ± 0.1 | 2.54 ± 0.08 | 2.3 ± 0.08 | 2.63 ± 0.088
48 | LLERTREIHNEAESQLR [FAS2] | 2.97 ± 0.12 | 2 ± 0.087 | 2.21 ± 0.22 | 2.54 ± 0.08
49 | LLIDQFSPVISQSLTSI [SWI1] | 1.64 ± 0.074 | 1.99 ± 0.067 | 1.64 ± 0.11 | 1.66 ± 0.064
50 | LLIIRSLKNTDALLNST [YJL039C/NUP192] | 2.97 ± 0.086 | 3 ± 0.096 | 2.37 ± 0.14 | 2.45 ± 0.15
51 | LLKDDTYQLCVRLRSNV [RPN3] | 1.47 ± 0.076 | 1.85 ± 0.29 | – | 1.25 ± 0.2
52 | LLKKELLTIEPKLKEAT [SMC2] | 3.22 ± 0.052 | 3.14 ± 0.064 | 3.11 ± 0.046 | 3.21 ± 0.039
53 | LLKLTKVFIRESLSLKN [YML103C/NUP188] | 1.72 ± 0.1 | 1.89 ± 0.12 | 1.3 ± 0.22 | 1.83 ± 0.17
54 | LLLSRVRADDLSTRFNI [RRP43] | 3.24 ± 0.091 | 3.07 ± 0.063 | 3.02 ± 0.06 | 3 ± 0.049
55 | LLMRLEGNYRNLNNLKQ [RPB8] | 3.29 ± 0.14 | 3.13 ± 0.13 | 3.22 ± 0.2 | 3.37 ± 0.082
